For experiment [1], the target named is SIRT3-HA (HeLa) (human). The experiment can be described thus: proximity ligation.
Experiment [2] addresses T1, SIRT3-FLAG (human, UniProt Q9NTG7 118-399).
T1 sequence (looked up): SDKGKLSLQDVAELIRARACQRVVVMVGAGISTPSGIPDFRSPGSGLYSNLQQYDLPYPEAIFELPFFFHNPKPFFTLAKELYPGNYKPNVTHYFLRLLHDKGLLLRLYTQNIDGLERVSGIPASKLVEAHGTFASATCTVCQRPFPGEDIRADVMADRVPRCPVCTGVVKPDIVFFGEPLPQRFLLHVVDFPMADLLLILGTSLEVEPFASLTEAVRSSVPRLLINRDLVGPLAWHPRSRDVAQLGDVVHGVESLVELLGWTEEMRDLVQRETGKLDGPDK
The experiment can be described thus: BLI. For orientation: Biolayer interferometry detects binding as a change in optical thickness at a sensor tip.

In experiment [3] the target is T1, SIRT3-FLAG. Nature of the experiment: BLI. This is another data set of the same source.

Like-named read-outs stand apart in the source and are kept apart here. Bounds are passed on as bounds.

B1: ATP5O (endogenous, HeLa) (natural protein)
chain: FAKLVRPPVQVYGIEGRYATALYSAASKQNKLEQVEKELLRVAQILKEPKVAASVLNPYVKRSIKVKSLNDITAKERFSPLTTNLINLLAENGRLSNTQGVVSAFSTMMSVHRGEVPCTVTSASPLEEATLSELKTVLKSFLSQGQVLKLEAKTDPSILGGMIVRIGEKYVDMSVKTKIQKLGRAMREIV
Regarding B1, in experiment [1], the PLA signals per cell (signals per cell) is less than 10 and the percent of cells with PLA signal turned out to be 40%.

B2: ATP5O (recombinant) (domain or fragment, human, UniProt P48047 46-213, looked up)
chain: YSAASKQNKLEQVEKELLRVAQILKEPKVAASVLNPYVKRSIKVKSLNDITAKERFSPLTTNLINLLAENGRLSNTQGVVSAFSTMMSVHRGEVPCTVTSASPLEEATLSELKTVLKSFLSQGQVLKLEAKTDPSILGGMIVRIGEKYVDMSVKTKIQKLGRAMREIV
As to B2, the values for the equilibrium dissociation constant (Kd) in experiment [2] and in experiment [3] were 400 nM and 100 nM, respectively.

The values above are taken from PMC5134900 (Cell, 2016).
